The source of these data is publication PMC10182041, “A first-in-class inhibitor of Hsp110 molecular chaperones of pathogenic fungi” (Nature Communications, 2023).

The target in the assay is T1, Msi3, the sole Hsp110 of Candida albicans (Candida albicans, UniProt Q96VB9 1-701).
T1 construct: Msi3 (Hsp110) of Candida albicans; ORF amplified from genomic DNA and cloned into the pSMT3 vector; source: E. coli Rosetta2(DE3)pLysS, purified (HisTrap, Ulp1 cleavage, second HisTrap, HiTrap Q); not shown: His6, N-terminal, cleaved; Smt3, N-terminal, cleaved
T1 sequence (looked up): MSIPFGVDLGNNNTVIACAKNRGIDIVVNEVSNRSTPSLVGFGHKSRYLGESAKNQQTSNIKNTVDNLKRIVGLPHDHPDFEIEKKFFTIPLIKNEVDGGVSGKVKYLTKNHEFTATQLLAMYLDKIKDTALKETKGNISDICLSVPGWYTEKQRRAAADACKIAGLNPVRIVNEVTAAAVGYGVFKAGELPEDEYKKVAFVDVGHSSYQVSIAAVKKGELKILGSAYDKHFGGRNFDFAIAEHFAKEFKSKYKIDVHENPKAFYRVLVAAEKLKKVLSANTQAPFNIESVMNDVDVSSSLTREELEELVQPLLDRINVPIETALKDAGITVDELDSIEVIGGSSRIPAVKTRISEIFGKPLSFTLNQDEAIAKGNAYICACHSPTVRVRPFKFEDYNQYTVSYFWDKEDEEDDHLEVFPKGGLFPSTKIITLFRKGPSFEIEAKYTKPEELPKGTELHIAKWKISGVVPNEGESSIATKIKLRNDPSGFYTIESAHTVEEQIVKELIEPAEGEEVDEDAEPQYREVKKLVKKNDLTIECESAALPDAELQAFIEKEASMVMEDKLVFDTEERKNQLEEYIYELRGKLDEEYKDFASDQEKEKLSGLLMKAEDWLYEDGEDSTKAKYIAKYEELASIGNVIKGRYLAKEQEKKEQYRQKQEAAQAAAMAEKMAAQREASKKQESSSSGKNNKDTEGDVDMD
Put plainly: native gel or EMSA; Msi3 (5 uM) and Ssa1 (10 uM) mixed with 2 mM ATP in buffer D (25 mM Hepes-KOH pH 7.5, 50 mM KCl, 10 mM Mg(OAc)2, 1 mM DTT), 45 min on ice; 10% native gel, Coomassie; with or without 100 uM 2H. Conditions: both partners purified. In general terms: A gel shift assay detects complexes by their altered migration in electrophoresis.

B1: Ssa1, the major cytosolic Hsp70 of S. cerevisiae (natural protein)
chain: not shown
notes: Ssa1, Hsp70 from Saccharomyces cerevisiae; source: Pichia pastoris GS115, purified (HiTrap Q, butyl-Sepharose, ATP agarose)
Regarding B1, the binding result is reported as “binds”.
